Values joined by “and” are separate entries in the source; they are usually repeats but may differ in a detail not shown here. Identical values can stand only once.
Assays:
[1] = target: T1, canine FcRn (UniProtKB-E2R0L6 [FcRn] and UniProtKB-E2RN10 [canine beta-2-microglobulin]) (canine); test: SPR Biacore 8K, pH 5.5, Fc captured via SASA tag on BSA, canine FcRn 100-800 nM
[2] = target: T1, canine FcRn; test: SPR Biacore 8K, pH 5.5, Fc captured via SASA tag on BSA, canine FcRn 400 nM
[3] = target: T1, canine FcRn; test: SPR Biacore 8K, pH 5.5, Fc captured via SASA tag on BSA, canine FcRn 200 nM
[4] = target: T1, canine FcRn; test: as above; remark: listed apart in the source
[5] = target: T1, canine FcRn; test: as above; remark: listed apart in the source
[6] = target: T1, canine FcRn; test: as above; remark: listed apart in the source
[7] = target: T1, canine FcRn; test: as above; remark: listed apart in the source
[8] = target: T1, canine FcRn; test: as above; remark: listed apart in the source
[9] = target: T1, canine FcRn; test: as above; remark: listed apart in the source
[10] = target: T1, canine FcRn; test: as above; remark: listed apart in the source
[11] = target: T1, canine FcRn; test: SPR Biacore 8K, pH 5.5, canine FcRn 400 nM; average of the 12 wild-type runs

## canine IgG.B Fc YTE variant (L252Y/A254T/T256E) (SASA-tagged CH2-CH3) (Fc fusion)
[1]
  Kd: 184 nM
  koff: 0.046 s⁻¹
  kon: 250000 M⁻¹ s⁻¹

## canine IgG.B Fc variant A254S (SASA-tagged CH2-CH3) (Fc fusion)
[2]
  Kd: 340 nM and 317 nM
  WT KD Avg/Variant KD: 1.66 and 1.78

## canine IgG.B Fc variant A254T (SASA-tagged CH2-CH3) (Fc fusion)
[3]
  Kd: 2290 nM and 1340 nM
  koff: 0.375 s⁻¹ and 0.433 s⁻¹
  kon: 163000 M⁻¹ s⁻¹ and 323000 M⁻¹ s⁻¹

## canine IgG.B Fc variant D378A (SASA-tagged CH2-CH3) (Fc fusion)
[2]
  Kd: 673 nM and 592 nM
  WT KD Avg/Variant KD: 0.84 and 0.96
  koff: 0.183 s⁻¹ and 0.181 s⁻¹
  kon: 272000 M⁻¹ s⁻¹ and 306000 M⁻¹ s⁻¹

## canine IgG.B Fc variant D378V (SASA-tagged CH2-CH3) (Fc fusion)
[3]
  Kd: 693 nM and 873 nM
  koff: 0.159 s⁻¹ and 0.16 s⁻¹
  kon: 229000 M⁻¹ s⁻¹ and 184000 M⁻¹ s⁻¹

## canine IgG.B Fc variant E380A (SASA-tagged CH2-CH3) (Fc fusion)
[2]
  Kd: 618 nM and 747 nM
  WT KD Avg/Variant KD: 0.76 and 0.92
  koff: 0.369 s⁻¹ and 0.18 s⁻¹
  kon: 598000 M⁻¹ s⁻¹ and 241000 M⁻¹ s⁻¹
[3]
  Kd: 1320 nM and 1570 nM
  koff: 0.223 s⁻¹ and 0.239 s⁻¹
  kon: 168000 M⁻¹ s⁻¹ and 152000 M⁻¹ s⁻¹

## canine IgG.B Fc variant G309A (SASA-tagged CH2-CH3) (Fc fusion)
[2]
  Kd: 245 nM and 294 nM
  WT KD Avg/Variant KD: 2.31 and 1.92

## canine IgG.B Fc variant H433A (SASA-tagged CH2-CH3) (Fc fusion)
[2]
  Kd: 266 nM and 359 nM
  WT KD Avg/Variant KD: 2.13 and 1.58
  koff: 0.229 s⁻¹ and 0.0997 s⁻¹

## canine IgG.B Fc variant I308A (SASA-tagged CH2-CH3) (Fc fusion)
[2]
  Kd: 472 nM and 563 nM
  WT KD Avg/Variant KD: 1.2 and 1
  koff: 0.169 s⁻¹ and 0.194 s⁻¹
  kon: 357000 M⁻¹ s⁻¹ and 345000 M⁻¹ s⁻¹

## canine IgG.B Fc variant K315A (SASA-tagged CH2-CH3) (Fc fusion)
[2]
  Kd: 422 nM and 548 nM
  WT KD Avg/Variant KD: 1.34 and 1.03

## canine IgG.B Fc variant L252A (SASA-tagged CH2-CH3) (Fc fusion)
[2]
  Kd: 292 nM and 240 nM
  WT KD Avg/Variant KD: 1.94 and 2.36

## canine IgG.B Fc variant L252M (SASA-tagged CH2-CH3) (Fc fusion)
[3]
  Kd: 869 nM and 774 nM
  koff: 0.168 s⁻¹ and 0.169 s⁻¹
  kon: 193000 M⁻¹ s⁻¹ and 218000 M⁻¹ s⁻¹

## canine IgG.B Fc variant L252Y (SASA-tagged CH2-CH3) (Fc fusion)
[3]
  Kd: 98.7 nM and 114 nM
  koff: 0.0397 s⁻¹ and 0.041 s⁻¹
  kon: 402000 M⁻¹ s⁻¹ and 358000 M⁻¹ s⁻¹
[1]
  Kd: 173 nM
  koff: 0.0476 s⁻¹
  kon: 275000 M⁻¹ s⁻¹

## canine IgG.B Fc variant M428A (SASA-tagged CH2-CH3) (Fc fusion)
[2]
  Kd: 723 nM and 1670 nM
  WT KD Avg/Variant KD: 0.78 and 0.34
  kon: 234000 M⁻¹ s⁻¹ and 318000 M⁻¹ s⁻¹

## canine IgG.B Fc variant N434A (SASA-tagged CH2-CH3) (Fc fusion)
[2]
  Kd: 457 nM and 494 nM
  WT KD Avg/Variant KD: 1.24 and 1.14
  koff: 0.237 s⁻¹ and 0.477 s⁻¹
  kon: 518000 M⁻¹ s⁻¹ and 966000 M⁻¹ s⁻¹
[3]
  Kd: 573 nM and 629 nM
  koff: 0.156 s⁻¹ and 0.164 s⁻¹
  kon: 272000 M⁻¹ s⁻¹ and 261000 M⁻¹ s⁻¹

## canine IgG.B Fc variant N434H (SASA-tagged CH2-CH3) (Fc fusion)
[1]
  Kd: 247 nM
  koff: 0.102 s⁻¹
  kon: 411000 M⁻¹ s⁻¹

## canine IgG.B Fc variant N434R (SASA-tagged CH2-CH3) (Fc fusion)
[3]
  Kd: 107 nM and 159 nM
  koff: 0.0524 s⁻¹ and 0.0633 s⁻¹
  kon: 488000 M⁻¹ s⁻¹ and 399000 M⁻¹ s⁻¹
[1]
  Kd: 182 nM
  koff: 0.0801 s⁻¹
  kon: 440000 M⁻¹ s⁻¹

## canine IgG.B Fc variant N434S (SASA-tagged CH2-CH3) (Fc fusion)
[3]
  Kd: 924 nM and 1050 nM
  koff: 0.207 s⁻¹ and 0.209 s⁻¹
  kon: 225000 M⁻¹ s⁻¹ and 199000 M⁻¹ s⁻¹

## canine IgG.B Fc variant N434W (SASA-tagged CH2-CH3) (Fc fusion)
[3]
  Kd: 40.4 nM and 75.7 nM
[1]
  Kd: 101 nM
  koff: 0.045 s⁻¹
  kon: 446000 M⁻¹ s⁻¹

## canine IgG.B Fc variant N434Y (SASA-tagged CH2-CH3) (Fc fusion)
[3]
  Kd: 15.9 nM
  koff: 0.00968 s⁻¹
  kon: 607000 M⁻¹ s⁻¹
[1]
  Kd: 29.1 nM
  koff: 0.0151 s⁻¹
  kon: 520000 M⁻¹ s⁻¹

## canine IgG.B Fc variant P307A (SASA-tagged CH2-CH3) (Fc fusion)
[2]
  Kd: 325 nM and 338 nM
  WT KD Avg/Variant KD: 1.74 and 1.67

## canine IgG.B Fc variant Q285A (SASA-tagged CH2-CH3) (Fc fusion)
[2]
  Kd: 341 nM and 257 nM
  WT KD Avg/Variant KD: 1.66 and 2.2

## canine IgG.B Fc variant Q311A (SASA-tagged CH2-CH3) (Fc fusion)
[2]
  Kd: 368 nM and 370 nM
  WT KD Avg/Variant KD: 1.54 and 1.53
  koff: 0.894 s⁻¹ and 0.496 s⁻¹
  kon: 2.43e+06 M⁻¹ s⁻¹ and 1.34e+06 M⁻¹ s⁻¹

## canine IgG.B Fc variant Q311V (SASA-tagged CH2-CH3) (Fc fusion)
[3]
  Kd: 372 nM and 439 nM
  koff: 0.566 s⁻¹ and 0.696 s⁻¹
  kon: 1.52e+06 M⁻¹ s⁻¹ and 1.59e+06 M⁻¹ s⁻¹

## canine IgG.B Fc variant T250A (SASA-tagged CH2-CH3) (Fc fusion)
[2]
  Kd: 335 nM and 328 nM
  WT KD Avg/Variant KD: 1.69 and 1.72

## canine IgG.B Fc variant T250E (SASA-tagged CH2-CH3) (Fc fusion)
[3]
  Kd: 2480 nM and 1660 nM
  koff: 0.284 s⁻¹ and 0.287 s⁻¹
  kon: 114000 M⁻¹ s⁻¹ and 172000 M⁻¹ s⁻¹

## canine IgG.B Fc variant T250Q (SASA-tagged CH2-CH3) (Fc fusion)
[3]
  Kd: 2590 nM and 2840 nM
  koff: 0.258 s⁻¹ and 0.268 s⁻¹
  kon: 99600 M⁻¹ s⁻¹ and 94300 M⁻¹ s⁻¹

## canine IgG.B Fc variant T256A (SASA-tagged CH2-CH3) (Fc fusion)
[2]
  Kd: 447 nM and 298 nM
  WT KD Avg/Variant KD: 1.27 and 1.9

## canine IgG.B Fc variant T286A (SASA-tagged CH2-CH3) (Fc fusion)
[2]
  Kd: 464 nM and 569 nM
  WT KD Avg/Variant KD: 1.22 and 0.99
  koff: 0.196 s⁻¹ and 0.304 s⁻¹
  kon: 422000 M⁻¹ s⁻¹ and 533000 M⁻¹ s⁻¹

## canine IgG.B Fc variant Y436A (SASA-tagged CH2-CH3) (Fc fusion)
[2]
  Kd: 393 nM and 876 nM
  WT KD Avg/Variant KD: 1.44 and 0.65
  koff: 0.407 s⁻¹ and 0.213 s⁻¹

B1: wild-type canine IgG.B Fc (SASA-tagged CH2-CH3) (Fc fusion, part only; not given: serum albumin single-domain tag, part only)
chain, part: APEMLGGPSVFIFPPKPKDTLLIARTPEVTCVVVDLDPEDPEVQISWFVDGKQMQTAKTQPREEQFNGTYRVVSVLPIGHQDWLKGKQFTCKVNNKALPSPIERTISKARGQAHQPSVYVLPPSREELSKNTVSLTCLIKDFFPPDIDVEWQSNGQQEPESKYRTTPPQLDEDGSYFLYSKLSVDKSRWQRGDTFICAVMHEALHNHYTQESLSHSPGK
[3]
  Kd: 8990 nM and 3110 nM
  koff: 0.347 s⁻¹ and 0.354 s⁻¹
  kon: 38700 M⁻¹ s⁻¹ and 114000 M⁻¹ s⁻¹
[4]
  Kd: 1710 nM and 2660 nM
  koff: 0.288 s⁻¹ and 0.326 s⁻¹
  kon: 168000 M⁻¹ s⁻¹ and 123000 M⁻¹ s⁻¹
[5]
  Kd: 2050 nM and 2990 nM
  koff: 0.31 s⁻¹ and 0.315 s⁻¹
  kon: 151000 M⁻¹ s⁻¹ and 105000 M⁻¹ s⁻¹
[6]
  Kd: 884 nM and 862 nM
  koff: 0.21 s⁻¹ and 0.218 s⁻¹
  kon: 237000 M⁻¹ s⁻¹ and 253000 M⁻¹ s⁻¹
[7]
  Kd: 639 nM and 692 nM
  koff: 0.17 s⁻¹ and 0.171 s⁻¹
  kon: 267000 M⁻¹ s⁻¹ and 247000 M⁻¹ s⁻¹
[8]
  Kd: 502 nM and 784 nM
  koff: 0.169 s⁻¹ and 0.207 s⁻¹
  kon: 336000 M⁻¹ s⁻¹ and 264000 M⁻¹ s⁻¹
[9]
  Kd: 1560 nM and 754 nM
  koff: 0.179 s⁻¹ and 0.182 s⁻¹
  kon: 115000 M⁻¹ s⁻¹ and 242000 M⁻¹ s⁻¹
[10]
  Kd: 955 nM and 1310 nM
  koff: 0.181 s⁻¹ and 0.209 s⁻¹
  kon: 190000 M⁻¹ s⁻¹ and 159000 M⁻¹ s⁻¹
[11]
  Kd: 566 nM
[1]
  Kd: 3150 nM
  koff: 0.527 s⁻¹
  kon: 168000 M⁻¹ s⁻¹

— patent US20240166748A1
